Results from patent publication US20080207521A1, “PEPTIDE LIGAND TO IMPAIR CANCER CELL MIGRATION” (priority 2005, published 2008).
Values belong to the molecule of their own block, whether it stands above or below them.

Tests used:
Frz-5 receptor [1] = target: T1, Frz-5 receptor (Homo sapiens, UniProt Q13467); assay: cell-based or functional assay
DDR1 = DDR1 phosphorylation in MDA-MB-468 cells (immunoprecipitation/Western blot); format: cell-based, human
Method: The phosphorylation status of DDR1 was analyzed as previously described (12), with the following modifications. After serum-depletion for 16 h, the cells were detached with Versene and then allowed to adhere to collagen I for 60 (MDA-MB-468) or 90 min (HB2) at 37° C. The experiments were terminated by lysing both adherent and non-adherent cells with a lysis buffer (50 mM Tris pH 7.4, 1% Triton-X, 5 mM EDTA, 5 mM EGTA, 50 mM NaCl, 10 μg/ml aprotinin, 2.5 mM benzamidine, 1 mM pefabloc, 1 μg/ml leupeptin and 1 mM Na3VO4). For immunoblotting an anti-DDR1 rabbit polyclonal Ab, sc-532 (Santa Cruz Biotech, Santa Cruz, Calif.) was used at a dilution of 1:10,000. The Ab recognizes DDR1b/c, which is essential because collagen only induces phosphorylation of the b or c isoforms of DDR1 in mammary epithelial cells (10).
Peptide-induced effects on adhesion and DDR1 phosphorylation in MDA-MB-468 breast cancer cells. (A) Western blot analysis of Wnt-5a protein expression in Wnt-5a antisense and Wnt-5a over-expressing HB2 cells in comparison to MDA-MB-468 tumour cells. […] The amounts of adhesive cells were analyzed as described in the methods and the results are given as means±SEM of 8 separate experiments. […] The amount of adherent cells was estimated as in panel A and expressed as means±SEM of 6 separate experiments, ns=not significant, ** p<0.01 and *** p<0.001. […]

Src kinase = target: T2, Src kinase (Homo sapiens, UniProt P12931); assay: Src activity in MDA-MB-468 cells (Western blot); format: cell-based; settings: PP1 10 μM for last 30 min; with or without serum
T2 construct: Src activity in MDA-MB-468 cells in the absence and presence of PP1 and/or serum; endogenous in cells; host or cells: MDA-MB-468
Method: Western blot analysis was performed to evaluate the protein expressions of Wnt-5a, EGF-receptor, Src and Frz-2 and 5 in HB2 and MDA-MB-468 cells. […] The Wnt-5a Ab has been produced in the laboratory, as previously described (9, 10). The cells were lysed and boiled in two times concentrated Laemmli buffer. The protein content was determined in each sample and adjusted to ensure loading of equal amounts of protein in each lane, 50 mM DTT was then added and the lysates were boiled for 10 min, before separation by SDS gel electrophoresis. The proteins were subsequently transferred to PVDF membranes. The membranes were blocked in 3% BSA or 5% non-fat milk for 45 min, incubated with the primary Ab for 1 h (1:2,000 for Wnt-5a, 1:1,000 for activated EGF-receptor, total EGF-receptor, actin, active Src and total Src, and 1:5,000 for Frz-2 and Frz-5), and then for 1 h with a horseradish peroxidase conjugated secondary Ab. The Ab-antigen complex was detected using an enhanced chemiluminescence detection kit from Amersham Pharmacia Biotech (Uppsala, Sweden). In the case of re-probing, the membranes were stripped with a Reblot Strong solution from Chemicon International (Temecula, Calif.).
(A) Effect of pre-treatment (30 min) with the Src-inhibitor PP1 (10 μM) on adhesion induced DDR1 phosphorylation in MDA-MB-468 cells. The blots shown are representative of 3 separate experiments. […]

Frz-5 receptor [2] = target: T1, Frz-5 receptor; assay: MDA-MB-468 cell migration with Frz-5 receptor blocking Ab or control anti-Frz-2 Ab; format: cell-based; design: endogenous in cells; host or cells: MDA-MB-468; settings: recombinant Wnt-5a 0.4 μg/ml; Ab 5 μg/ml; 18 h
Method: The peptide […], corresponding to amino acids 198-217 in the ectodomain of the human Frz-5 receptor was as previously described used to generate a Frz-5 receptor blocking Ab (13). The peptide […], corresponding to amino acids 202-220 in the ectodomain of the human Frz-2 receptor, was used to generate a control anti-Frz-2 Ab. The synthesis of the peptides (the italic letters indicate the Frz-5 and Frz-2 sequences, the cysteine was added for raising and purifying the Ab) and the production of rabbit anti-Frz-5 and anti-Frz-2 antisera were managed by AgriSera (Vännäs, Sweden; permit A69-04 from Ume(a) animal ethic committe). The antisera were affinity purified in the laboratory by coupling the respective peptide antigen to Sulfolink Sepharose over which the respective antisera was then eluted.
Cell migration analyses were performed in a modified Boyden chamber with a polycarbonate membrane (10 μm thick with a porous diameter of 8.0 μm) separating the two chambers (Transwell®; Costar, Cambridge, Mass.). As indicated in some experiments the membranes were coated with collagen by adding collagen-I (10 μg/ml) diluted in 0.25% acetic acid to the upper chamber for 1 h at 37° C., after which it was washed three times with PBS. […] After washing the membranes the number of stained cells per membrane and well was counted in an inverted microscope. […]

[3] = tested on: Wnt-5a antisense HB2 cells; assay: Migration of Wnt-5a antisense HB2 cells in modified Boyden chamber; format: cell-based, human; settings: recombinant Wnt-5a 0.4 μg/ml; 18 h
Method: Cell migration analyses were performed in a modified Boyden chamber with a polycarbonate membrane (10 μm thick with a porous diameter of 8.0 μm) separating the two chambers (Transwell®; Costar, Cambridge, Mass.). As indicated in some experiments the membranes were coated with collagen by adding collagen-I (10 μg/ml) diluted in 0.25% acetic acid to the upper chamber for 1 h at 37° C., after which it was washed three times with PBS. Each experiment was initiated by detaching the cells by Versene treatment for 10-20 min at 37° C., washed, and re-suspended as a single cell suspension in serum-free DMEM medium supplemented with 0.5% BSA. Together with the indicated agonist a 0.2 ml cell suspension (containing 25,000 MDA-MB-468 or 50,000 HB2 cells) was then added to the upper chamber of the transwell. The lower chamber was filled with 0.6 ml serum-free but BSA-containing DMEM medium supplemented with 1 ng/ml of the chemoattractant IGF-I. As a control, IGF-I was excluded in some wells in each separate experiment. The cells were allowed to migrate in the Boyden chamber for 18 h at 37° C. in a humidified atmosphere of 95% air and 5% CO2. The experiments were terminated by removing the non-migratory cells with a cotton-tipped applicator from the upper surface of the membranes. The remaining cells on the lower surface that had migrated through the membrane were stained for 20 min with 0.5% crystal violet diluted in 20% methanol/80% water. After washing the membranes the number of stained cells per membrane and well was counted in an inverted microscope. The value from each separate experiment represents the median value of three individual wells.
Effects of the selected and pure peptides on the ability of Wnt-5a antisense HB2 cells to adhere and migrate. (A-E) The ability of the cells to adhere to collagen type I-coated wells was analyzed as previously described for FIG. 2 in the absence or presence of different concentrations of the indicated peptide. (F) Effect of the indicated peptides on migration of Wnt-5a antisense HB2 in a transwell migration assay. The cells were allowed to migrate for 18 h in the absence or presence of 100 μM peptide or 0.4 μg/ml of recombinant Wnt5a. The data are given as means±SEM of 6-7 separate experiments, each performed in triplicate. * p<0.05 and ** p<0.01.

T1 sequence (Q13467 27-585): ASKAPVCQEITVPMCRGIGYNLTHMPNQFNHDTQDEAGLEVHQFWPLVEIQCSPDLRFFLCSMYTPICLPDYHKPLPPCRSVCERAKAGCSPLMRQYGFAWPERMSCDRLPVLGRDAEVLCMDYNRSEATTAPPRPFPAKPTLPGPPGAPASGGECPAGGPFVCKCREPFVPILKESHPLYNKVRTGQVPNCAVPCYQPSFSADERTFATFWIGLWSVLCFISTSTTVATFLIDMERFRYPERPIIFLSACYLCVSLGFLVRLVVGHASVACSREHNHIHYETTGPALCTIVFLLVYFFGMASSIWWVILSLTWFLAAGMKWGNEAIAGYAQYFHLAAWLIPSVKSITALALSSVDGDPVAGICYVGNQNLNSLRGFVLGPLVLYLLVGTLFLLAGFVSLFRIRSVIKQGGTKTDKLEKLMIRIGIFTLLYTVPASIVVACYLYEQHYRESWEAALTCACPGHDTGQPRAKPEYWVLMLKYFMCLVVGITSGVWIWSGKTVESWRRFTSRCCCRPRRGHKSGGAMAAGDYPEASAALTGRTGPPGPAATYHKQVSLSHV
T2 sequence (P12931 whole entry): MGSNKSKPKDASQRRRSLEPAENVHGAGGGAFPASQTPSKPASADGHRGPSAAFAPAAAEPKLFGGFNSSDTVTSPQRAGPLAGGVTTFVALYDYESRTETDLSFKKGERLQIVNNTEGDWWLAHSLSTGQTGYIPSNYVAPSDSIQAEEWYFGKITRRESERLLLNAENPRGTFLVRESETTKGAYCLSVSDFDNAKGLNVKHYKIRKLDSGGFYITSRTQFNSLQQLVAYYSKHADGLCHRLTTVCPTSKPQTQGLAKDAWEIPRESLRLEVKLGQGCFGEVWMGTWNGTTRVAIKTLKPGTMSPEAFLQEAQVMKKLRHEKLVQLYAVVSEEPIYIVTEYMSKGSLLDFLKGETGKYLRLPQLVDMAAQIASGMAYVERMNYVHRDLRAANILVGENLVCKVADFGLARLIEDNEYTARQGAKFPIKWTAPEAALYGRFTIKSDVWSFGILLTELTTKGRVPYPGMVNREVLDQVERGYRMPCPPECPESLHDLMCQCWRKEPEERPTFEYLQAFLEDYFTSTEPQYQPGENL

- MDA-MB-468 cell adhesion to collagen I (Frz-5 receptor [1]): 15.7
Molecule: formylated tripeptide fMet-Leu-Phe

- Src kinase activity (Src kinase): abolished
Molecule: Cc1ccc(-c2nn(C(C)(C)C)c3ncnc(N)c23)cc1 [PP1, 4-amino-5-(4-methyl-phenyl)-7-(t-butyl)pyrozolo-D-3,4-pyrimidine, reference compound]
- basal phosphorylation of DDR1 (DDR1; PP1 10 μM for 30 min): abolished the basal phosphorylation of DDR1

- decrease in migration in presence of anti-Frz-5 or anti-Frz-2 Ab (Frz-5 receptor [2]): mediated via the Frz-5 receptor
B1: recombinant Wnt-5a: recombinant mouse Wnt-5a (R&D Systems) (protein)
chain: IIGAQPLCSQLAGLSQGQKKLCHLYQDHMQYIGEGAKTGIKECQYQFRHRRWNCSTVDNTSVFGRVMQIGSRETAFTYAVSAAGVVNAMSRACREGELSTCGCSRAARPKDLPRDWLWGGCGDNIDYGYRFAKEFVDARERERIHAKGSYESARILMNLHNNEAGRRTVYNLADVACKCHGVSGSCSLKTCWLQLADFRKVGDALKEKYDSAAAMRLNSRGKLVQVNSRFNSPTTQDLVYIDPSPDYCVRNESTGSLGTQGRLCNKTSEGMDGCELMCCGRGYDQFKTVQTERCHCKFHWCCYVKCKKCTEIVDQFVCK
modifications: left off: small tags and cut ends
- level of DDR1 phosphorylation (DDR1; recombinant Wnt-5a 0.8 μg/ml, 60 min on collagen I): neither the pure peptides, CM nor recombinant Wnt-5a were able to further increase
- migration [3]: effectively decreased the migration
